# According to the supplement of paper PMC9170038:
# System: K4 kissing-loop RNA reporter
# Test: apparent KD of K4 kissing-loop reporter; higher = weaker reporter binding
# Settings: Eterna round: R107; input ligand: FMN 200 uM
# Method: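 RNA-MaP round R107: designed RNA switches with theophylline, tryptophan, arginine or FMN aptamers are transcribed on-chip within common flanks. They are titrated with a labelled K4 kissing-loop RNA reporter in RNA-MaP buffer (100 mM Tris pH 7.5, 80 mM KCl, 4 mM MgCl2), without ligand or with the indicated ligand. Median apparent KD per design.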
# 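Further: bound reporter read as fluorescence of individual clusters on recovered sequencing chips by microscopy, with normalized cluster intensities fitted with a binding model.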
row,Sequence,apparent KD of K4 kissing-loop reporter [nM]
1,GGAGAGGUCUUGUUUGGAUGUGAUUAAUGGCGAGGACCGGUACGGCCGCCACUCGGGUGAUGUUAGUGAUGUUGAUGUAGUGAUG [uyumullin],150
2,GCGCAUGUUAAAGGAUAUAGCAGGUGAUACAAGAAAGUGAGUGAUGUUUAUGUAGAUGAUGAUAUGUUAGAAGGUUAACAAACGC [abcdefghijklmno],922
3,AAGCAGUCACUCGCAGCCAUCGAAGAUGGGCGAGGACCGGUACGGCCGCCACUCGGAGUGAUGUUCCGCAGACUGCAAAAUAAAA,536
4,AAUAUCUAGUAUAUAUUUAAUAAAACAGAUACCAGUGAUAAUAGACACCCUUGGCAGCUGGACGAGUGAUGUUCGUAUAUAUUAA [JR_SSTheophyA_Sub007],90.7
5,AGAACUGUCUUGGAUACCAGUGAUGUUGGUAUCGAUGUGUGAGUGCAAAGCGUCCCAGAGUGCCCUUGGCAGCUAAGACUGUUCA [#16 K4 Theophylline B Exclusion],277
6,UUUGGAGAGGGAAGGAGCGUGAAAGAGAAAGAAUAUAGUGAUGUUAUAUAGAAGAAAGAAUCACAGGUAGGUCGCCCGGAGGAGG [SSArgB.D],707
7,AGCCGAAAGGCGAGUGCUGUCACUCCGGAAGGAGCGCAGGAAACUGCAGGUAGGUCGCCGGAGUGAUGUUCCGGUGCAGCACUCA [Omei KL Arginine A Exc B v6],614
8,GGAUGGUAGGCGGCCGCCACUAAAUGUGAACACAUACAAGCCAGUGAUGUUGGUAUGAUGGACAAUAGGACCGGGCCUAGAUAGA [Exclusion - Tryptophan B (Freestyle 7)],595
9,AGGCACGAGCAAGGAUAUCGAGUGGAGUGAUGUUCUGCCGACCCAGGACCGCAAGGUCCUGGGUCGCGAGAAGGUGCUCGUGCCU [#2 Same State - FMN A Attempt #5 (HarryS)],254
10,AGGAUCCGUCGACAAAAGUCGACAUAAUCCAAGGAUAUGACGAAAGUCAGAAGGUGGACAUAAGUCCAGUGAUGUUGGAGGAUCC [FmnA 16 #SwitchBubble #K4Late],766
11,UAGUCAUACAGAGGAUAUCGUAUGAGUGAUGUUCAUACGAUAUAAUCUAAUUGUAUAGAUGUUCGACGAGAAGGCUGUAUGACUA [FMN B Ex t1a],116
12,UGUCAUGGAAACAUGAACGUUGAAAUAAAUCGAGGACCGGUACGGCCGCCACUCGUAUAGCGGUCAGUGAUGUUGACUGUAAUAA [KL-SSTryp-A form2 sub9],94.9
13,GUAUACAUAGAUCACCUUGUAGUGAUGUUGCGAGGACCGGUACGGCCGCCACUCGAAGUACGAAAGUACAAAGAUCUAUGUAUAC [Exclusion Trypto A - 1],251
14,CAUACGCAUGGAGGAUAUGAGAUUACUCGUAUCAUUUAAUAUUCUCAGUGAUGUUGAGAUUUGGGCUCAGAAGGCCAUGUGUAUG [Ex FMN B 16],393
15,CCAGAAUGAUGAAGAUGAUAAAUUACUGAAGGAGCGCAUAUAGUUGCAGGUAGGUCGCGGUGAAUAAGUAUAGUGAUGUUAUACC [SSArgA.Ac],265
16,UUUGUAUAGGGAAGGAGCGUGAAUGAUAAUGAAUAUAGUGAUGUUAUAUAUAAGAAAGAAUCACAGGUAGGUCGCCCGGAUGAGU [SSArgB.L],432
17,CGCGCGCGUUUGAGAGGGUGCGCGCGAAGUGAGGAUAUUUAGGGAGAAAGAAGGCACUAUAAAAUAUAGUGAUGUUAUAUAAGGG [SSFMNA.G],431
18,AGAUUCGACACGGCCGCCACUUCCAGUGGUCGGUGUCAUGGUGCACAUGAGUGAUGUUCAUGUGGAAGGACCGGGUGUUGAGUCU [KL-XTryp-B3 #analogue],111
19,CGCGCGGGUUGAGAGGUUCGCGCGAAUGAUACCAGUAUAUAAGAAUACCCUUGGCAGCAUAAGAAAGAUAUAGUGAUGUUGUAUA [SSTheophA.G],408
20,GUAUUUCCCUCGGAUACCAGUCAUCAUGAGUAUAGUGAUGUUGUACGUCCGGAUGAUUUUGACCCUUGGCAGCCGUCUCCUUGAA [theeternabot_sameState_KL_Theo_B_49],515
21,UGGAGUUGACGAAAAGUCAACUCCUGAGAUACCAGUGACGAAAGUCACCCUUGGCAGCUCACUGCCAGUGAUGUUGGAAAAUAAA [#OpenEnded 1],527
22,UGUAUGUGAUUUGAUACCAGACCAGCUGGUGGAUCACGAGUGAUGUUCGUGUUGGUUUGGGUCCCUUGGCAGCAAAUCGCAUACU [KL-SSTheoB13],218

row,Sequence,apparent KD of K4 kissing-loop reporter [nM]
1,CGCAGUGAUGUUGCGAGUAGCUACAGGGAAGGAGCGUGCUAGAGCACAGGUAGGUCGCCCACUGGGUCAGUGAUGUUGGUCGGGU [Same State Arginine A GF 29],201
2,GUGCGGCUAGUGAUGUUGGUUGCGUGGGAAGGAGCGCAGAAACAUGCAGGUAGGUCGCCCACAUCUCUGAUAAAAGAUUAAUUCA [Riares],304
3,UGAUAGGACAGAAGGAGCGGAGCUGGUCAAAGACCAGCAAUAACGUUGAAAGGAGUGAUGUUCCAGGUAGGUCGCUGUCCUAUCU [ArgBX 26 #SwitchBubble #StaticStem],121
4,AGAGUACGAAAGUACUCCUCUACACACUGCCGAGGACCGGUACGGCCGCCACUCGAGUUGAGUGAUGUUCGACAGUGUGUAGAGA [Omei KL Tryp A SS C v2],114
5,CCGAAGAACCAGUGAUGUUGGUUGACUAGACAGGAUAUGAGCAACAUCAGAAGGGUCUGGCUUCGGGAGUGAGUCGCGCUGACUU [Reverigeed],260
6,GUAUCGCUAGGAGGAUAUGUCGUUUUUCAUAGCAAUGGCUGUGCGGAGUGAUGUUCCGAUUUACCGGCAGAAGGCCUAGUGAUAC [FMN B 28],118
7,AAGAGCUAGGCGGCCGCCACUAGAUGUGAACACAUACAAACCAGUGAUGUUGGUAUGAUGGACAGUAGGACCGGGCCUAGCUGAA [Exclusion - Tryptophan B (Freestyle 10)],998
8,UGAUAGGACAGAAGGAGCGGAAGUGAUGUUUCCAAAUGGAAUAAGGUGUCAAAGACACCCUUCCAGGUAGGUCGCUGUCCUAUCU [ArgBX 15 #Palindromic #SwitchBubble #StaticStem],147
9,AAAUAUUCGAGUGAUGUUCGAUAAAUUUCAGAGGAUAUGCUUAAAAGCAGAAGGCUGUAUUUCUAUUUGUUAUUAAAUUUUAUAA [JR_ExcFMNA_Sub002],90.3
10,AAAUAAAUCACGGCCGCCACUGUAAGUUGAAGUGAUGUUUCAAGAUAUAGUAUGUUUUAUAAUAUCAGGACCGGGUGAUUUUUAA [JR_SSTryptoB_Sub021],147
11,AAUUUACAAUAAUCAUUUAAAGGAUCAGAAGGAGCGUGUUAUAACACAGGUAGGUCGCUGAGCGAGUGAUGUUCGCUAUAUACAA [JR_ExcArginiA_Sub002],76.3
12,UAACUGCAGUGAUGUUGCAGAUGUCCUGACUAGGAUAUCAGGAAACUGAGAAGGAGUCCCUUCUACUGCAACAAGAAGGAGGACA [[K1]-[K2]-[F1]'-[F1]-[F2]-[F2]'-[K]'-[F]''_Design2],396
13,GUGCAGUGAUGUUGCACGAGGAAAGACGAUACCAGCCGUAAAUAAGGCCCUUGGCAGCGUAAGCUAGCAUAAAGUAUGCUAGUCC [Onarve],108
14,GGAUCCACCAGUGAUGUUGGAGAAAACUUCAAGGAUAUGACGAAAGUCAGAAGGUGAUAGACUGGACAAAGUCCGGUCGGAUCCA [FmnA 19 U29+A57],552
15,GCCGUAGAUUGAAGGAGCGCUAGUCUACGAUGACACACAGUGAUGUUGUGCGUGAUUUCAUAGCAGGUAGGUCGCAAUCUACGGC,230
16,AGACUACCACACUGUCAAUAGACAGUGAGCUAGGAUAUGCUGAUAAGCAGAAGGAGUGAUGUUCCUAGGUAGUCAAUAAAAUAAU [FmnAX 13 G29],447
17,GCCGCAAGGAUAGCAGCAAUAGGCGCUCGCUAGGAUAUCUGGAAACAGAGAAGGAGCUGGAGUGAUGUUUUACCUCCUAAAAUUA,517
18,CGAGUGAUGUUCGUUUUUUACUUUUUUUGACAGGAUAUGCGGAAACGCAGAAGGGUCACCUUUGAGUUAAAAGAAGUUAUUUUUU [Ex FMN A 18],262
19,GCGUCUGUCGGAAGGAGCGCACUAUGGAGUGAUGUUCCAUGACCGCACAGCUUGCGGUCAGUGCAGGUAGGUCGCCGAUAGCGUU [Diestera],161
20,AAACUACGUGACGAUACCAGCUUACUCGGCAAGCCAGUGAUGUUGGUGAAAAGGAGUCAAAGCCCUUGGCAGCGUCGAAGGUUUG [Usandiat],257
21,AGUGAGUGAUGUUCACUGUACGUGUCUGAAGGAGCGACAUCGAUGUCAGGUAGGUCGCAGACAUGUCAUCUAUGGUGCGUGACCA [Arg A SS t10],124

# Same assay, conditions: Eterna round: R107; input ligand: arginine 13.2 mM
row,Sequence,apparent KD of K4 kissing-loop reporter [nM]
1,GGAGAGGUCUUGUUUGGAUGUGAUUAAUGGCGAGGACCGGUACGGCCGCCACUCGGGUGAUGUUAGUGAUGUUGAUGUAGUGAUG [uyumullin],103
2,GCGCAUGUUAAAGGAUAUAGCAGGUGAUACAAGAAAGUGAGUGAUGUUUAUGUAGAUGAUGAUAUGUUAGAAGGUUAACAAACGC [abcdefghijklmno],624
3,AAGCAGUCACUCGCAGCCAUCGAAGAUGGGCGAGGACCGGUACGGCCGCCACUCGGAGUGAUGUUCCGCAGACUGCAAAAUAAAA,343
4,AAUAUCUAGUAUAUAUUUAAUAAAACAGAUACCAGUGAUAAUAGACACCCUUGGCAGCUGGACGAGUGAUGUUCGUAUAUAUUAA [JR_SSTheophyA_Sub007],153
5,AGAACUGUCUUGGAUACCAGUGAUGUUGGUAUCGAUGUGUGAGUGCAAAGCGUCCCAGAGUGCCCUUGGCAGCUAAGACUGUUCA [#16 K4 Theophylline B Exclusion],230
6,UUUGGAGAGGGAAGGAGCGUGAAAGAGAAAGAAUAUAGUGAUGUUAUAUAGAAGAAAGAAUCACAGGUAGGUCGCCCGGAGGAGG [SSArgB.D],865
7,AGCCGAAAGGCGAGUGCUGUCACUCCGGAAGGAGCGCAGGAAACUGCAGGUAGGUCGCCGGAGUGAUGUUCCGGUGCAGCACUCA [Omei KL Arginine A Exc B v6],317
8,GGAUGGUAGGCGGCCGCCACUAAAUGUGAACACAUACAAGCCAGUGAUGUUGGUAUGAUGGACAAUAGGACCGGGCCUAGAUAGA [Exclusion - Tryptophan B (Freestyle 7)],448
9,AGGCACGAGCAAGGAUAUCGAGUGGAGUGAUGUUCUGCCGACCCAGGACCGCAAGGUCCUGGGUCGCGAGAAGGUGCUCGUGCCU [#2 Same State - FMN A Attempt #5 (HarryS)],642
10,AGGAUCCGUCGACAAAAGUCGACAUAAUCCAAGGAUAUGACGAAAGUCAGAAGGUGGACAUAAGUCCAGUGAUGUUGGAGGAUCC [FmnA 16 #SwitchBubble #K4Late],283
